Molecular target: PCSK9 (UniProt Q8NBP7)
Experiment: SPR

Chain of UniProt Q8NBP7 (Q8NBP7 31-692): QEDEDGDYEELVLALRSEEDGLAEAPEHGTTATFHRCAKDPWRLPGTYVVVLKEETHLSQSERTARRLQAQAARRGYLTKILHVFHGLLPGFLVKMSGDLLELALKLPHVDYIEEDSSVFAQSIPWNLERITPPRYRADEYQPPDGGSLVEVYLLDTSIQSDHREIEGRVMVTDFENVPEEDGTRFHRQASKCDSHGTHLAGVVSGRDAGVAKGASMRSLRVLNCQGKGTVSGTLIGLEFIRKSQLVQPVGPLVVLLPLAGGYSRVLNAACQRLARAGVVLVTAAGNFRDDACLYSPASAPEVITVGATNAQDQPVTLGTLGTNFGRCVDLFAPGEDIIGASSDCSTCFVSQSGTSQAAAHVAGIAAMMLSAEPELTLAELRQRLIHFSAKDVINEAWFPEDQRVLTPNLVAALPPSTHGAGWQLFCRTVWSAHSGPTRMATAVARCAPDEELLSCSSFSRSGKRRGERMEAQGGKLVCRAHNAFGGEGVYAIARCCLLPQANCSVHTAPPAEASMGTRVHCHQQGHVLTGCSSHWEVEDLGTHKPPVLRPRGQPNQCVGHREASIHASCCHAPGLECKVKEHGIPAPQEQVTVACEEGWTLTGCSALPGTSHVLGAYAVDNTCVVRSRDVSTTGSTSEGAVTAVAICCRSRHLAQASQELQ

Bococizumab (antibody)
Kd: 0.03 nM
